# Data: article PMC6783512, “Dimethylaminomicheliolide (DMAMCL) Suppresses the Proliferation of Glioblastoma Cells via Targeting Pyruvate Kinase 2 (PKM2) and Rewiring Aerobic Glycolysis” (Frontiers in Oncology, 2019)
# B1: recombinant PKM2 C424S (enzyme)
# chain: not shown
# notes: Pyruvate kinase M2 (PKM2) with C424S; likely made in E. coli like the wild type; also called rPKM2 protein with C424 mutation; source: purified (plasmid pET28a-PKM2 C424S)
# Biological target: the molecule itself
# Assay: SEC + AUC; 2 mL of 3 mg/mL purified PKM2 on Superdex 200 pg 16/600, 1 mL/min, UV 280 nm; peaks identified by analytical ultracentrifuge (results: sucrose gradient ultracentrifugation); monomer and tetramer fractions isolated
protein,measurement,value
B1,stoichiometry N,4
